Source: patent US20230227838A1, “ENHANCED CELL SURVIVAL AGAINST BIOTIC AND ABIOTIC STRESSES THROUGH SALICYLICK ACID-INDUCED NPR1 CONDENSATES” (priority 2020, published 2023)
Where a chain is given by its changes, count along the chain named.

Tests used:
[1] = target: T1, Myc-CUL3 (Arabidopsis thaliana, UniProt Q9ZVH4 1-732); assay: co-IP, co-expression in N. benthamiana, 1 mM SA
T1 construct: also called AtCUL3A (AT1G26830); not shown: N-terminal Myc tag (pEG203)
T1 sequence (looked up): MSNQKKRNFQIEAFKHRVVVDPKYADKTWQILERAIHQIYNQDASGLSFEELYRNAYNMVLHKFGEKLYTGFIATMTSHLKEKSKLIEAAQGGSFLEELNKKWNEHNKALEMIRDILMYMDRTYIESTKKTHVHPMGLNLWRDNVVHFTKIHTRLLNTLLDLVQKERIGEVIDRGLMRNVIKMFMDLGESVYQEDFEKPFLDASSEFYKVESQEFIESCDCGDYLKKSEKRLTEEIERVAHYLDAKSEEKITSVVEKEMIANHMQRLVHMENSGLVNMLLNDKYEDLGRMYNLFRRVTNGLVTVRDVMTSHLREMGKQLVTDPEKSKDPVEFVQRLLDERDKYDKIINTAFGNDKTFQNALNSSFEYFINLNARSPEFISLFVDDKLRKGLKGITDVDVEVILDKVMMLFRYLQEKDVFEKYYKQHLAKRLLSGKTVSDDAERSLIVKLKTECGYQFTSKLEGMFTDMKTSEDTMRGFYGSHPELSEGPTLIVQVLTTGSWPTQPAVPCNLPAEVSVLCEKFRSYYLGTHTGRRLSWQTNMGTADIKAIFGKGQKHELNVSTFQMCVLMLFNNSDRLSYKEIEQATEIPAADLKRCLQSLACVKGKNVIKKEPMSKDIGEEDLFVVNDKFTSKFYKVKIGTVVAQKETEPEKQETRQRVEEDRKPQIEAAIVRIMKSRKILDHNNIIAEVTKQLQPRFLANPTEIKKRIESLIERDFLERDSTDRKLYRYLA

[2] = test system: PR1 promoter; assay: PR1 promoter activity, dual luciferase assay; format: cell-based, Nicotiana benthamiana; conditions: 2 mM SA for 24 hr
Source text: PR1 promoter activity and dual luciferase assay. For promoter transactivation assays, the PR1 promoter reporter (pPR1:DUAL-LUC) was transiently co-expressed in N. benthamiana together with free HA, or HA-fused WT NPR1 or npr1 mutants (effectors) followed by treatment with SA at 1 dpi. At 2 dpi (24 hr after SA treatment), leaf discs were collected, ground in liquid nitrogen, and lysed with the PLB buffer of the Dual-Luciferase Reporter Assay System (Promega, E1910). Lysate was spun down at 12,000 g for 1 min, and 10 μl was taken for measuring FLUC and RLUC activities according to manufacturer's instructions using a Victor3 plate reader (PerkinElmer). At 25° C., substrates for FLUC and RLUC were added using the automatic injector and after 3 s shaking and 3 s delay, the signals were captured for 3 s and recorded as counts per second. To obtain the PR1 promoter activity, the ratio of F-LUC and R-LUC activities was calculated for each effector and plotted relative to that of free HA.

[3] = test system: cytoplasmic condensates (SINCs); assay: Confocal imaging of localization and condensate (body) formation of GFP-fused NPR proteins and variants; format: cell-based, Nicotiana benthamiana
Summary of the method: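 GFP fusions transiently expressed in N. benthamiana by Agrobacterium infiltration (OD600 1). For NPR1-GFP, 4-day Arabidopsis seedlings were vacuum-infiltrated and, at 48 hpi, soaked 2 h in water or SA. Airyscan confocal, 40× water objective, GFP ex 488 nm/em 505-530 nm; condensate number, size and intensity scored by automated thresholding.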

[4] = test system: CUL3; assay: Co-IP of Myc-CUL3 with HA-fused NPR1 or variants; format: binding, Arabidopsis thaliana; conditions: 1 mM SA for 5 hr
Experimental: Plant transformation: For plant transformations, the Agrobacterium tumefaciens strain GV3101 was transformed with plant binary vectors carrying the indicated transgenes. For stable expression in Arabidopsis, a floral dipping method was used. For transient expression in N benthamiana, the Agrobacterium carrying the indicated construct was cultured overnight at 28° C. in Luria-Bertani (LB) broth medium supplemented with appropriate antibiotics: spectinomycin (100 μg/ml), kanamycin (50 μg/ml), gentamycin (50 μg/ml), and rifampicin (25 μg/ml). The obtained culture was re-inoculated at 1:10 into fresh growth media with antibiotics and grown for another 4 hr. Cells were then spun down at 1,600 g for 10 min, and inoculum was prepared by resuspending cells to OD600 nm=1 in double distilled water (DDW) containing 200 μM acetosyringone (Sigma). Unless otherwise stated, for co-IP, co-localization, and BiFC assays in N. benthamiana, the proteins were co-expressed at 1:1 mixture of the relevant Agrobacteria inoculums. In all BiFC assays, the pair of YN/YC fusions was co-expressed together with free mCherry to mark the cytoplasm and nucleus, mCherry-NLS to mark the nucleus only, or mCherry-fused test proteins for co-localization analysis. The inoculum was pressure infiltrated into N. benthamiana leaves at the abaxial side using 1 ml syringe without the needle. Due to low overall levels of NPR1-GFP in transgenic plants, a transient expression assay in Arabidopsis seedlings was used to monitor NPR1-GFP subcellular localization after SA treatment (FIG. 2B). To limit the imaging time in this transient assay (2 hours), a higher baseline SA concentration had to be used. Seeds of WT (Col-0) Arabidopsis were germinated on solid half-strength Murashige and Skoog (1/2 MS) medium and grown for 4 days. Agrobacterium carrying the indicated constructs was grown overnight in LB medium supplemented with appropriate antibiotics. The obtained culture was re-inoculated at 1:10 into virulence induction medium [50.78 mM MES, 0.5% Glucose, 1.734 mM NaH2PO4, 5% of 20X-AB mix (373.9 mM NH4C1, 24.34 mM MgSO4, 40.23 mM KCl, 1.36 mM CaCl2 and 0.18 mM FeSO4·7H2O), 200 μM acetosyringone] supplemented with 25 μg/ml rifampicin and grown for another 24 hr at 28° C. to OD600=0.8 (inoculum). Seedlings were vacuum-infiltrated with the inoculum, and at 48 hpi (hours post inoculation), treatments were performed by submerging the transformed seedlings in water or SA solution at indicated concentrations for 2 hr. Entire cotyledons were sampled for microscopy.
Protein analysis and IP. Recombinant protein analysis was performed using transient expression in N. benthamiana, or stable over-expression in transgenic Arabidopsis, or expression in E. coli. Total protein extraction from plants was performed by homogenizing leaf tissue in the plant extraction buffer [50 mM Tris-HCl (pH 7.5), 150 mM NaCl, 5 mM EDTA, 0.2% Triton X-100, 0.2% Nonidet P-40] supplemented with 1 mM PMSF, 100 μM MG132, and EDTA-free protease inhibitor cocktail (Roche). For ubiquitinated protein analysis in plants, 100 μM of DUB (deubiquitinase) inhibitor (LifeSensors) and 10 mM NEM were added. Next, the lysates were cleared by centrifugation at 14,000 rpm for 15 min followed by filtering through a 0.2 μm filter. […] Pull-downs or IP experiments were done on total protein extracts by incubating protein samples in the lysis buffer overnight with indicated affinity tag or antibody conjugated to agarose or magnetic beads: GFP-trap agarose beads (Chromotek) for GFP fusions; RFP-trap agarose beads (Chromotek) for mCherry fusions; anti-HA magnetic beads (ThermoFisher) for HA tag fusions; anti-DYKDDDDK coupled magnetic agarose (ThermoFisher) for FLAG tag fusions; and glutathione magnetic agarose (ThermoFisher) for GST fusions. Unless otherwise indicated, after pull-down/IP, beads were washed 3 times and proteins were eluted by boiling in the 2×SDS sample buffer. […]

[5] = test system: Psm ES4326/AvrRpt2-mediated cell death; assay: Cell death (conductivity/electrolyte leakage, trypan blue) after Psm ES4326/AvrRpt2 inoculation; format: in vivo, Arabidopsis thaliana; conditions: transgenic plants expressing the mutant in npr1-2 background; 1 mM SA 24 hr before inoculation
Experimental: Chemical treatment, pathogen infection and cell death assays. […] At 2 days, the bacterial colonies were scored.
Trypan blue staining. Leaves of three-week-old Arabidopsis infected with Psm ES4326/AvrRpt2 were sampled at 1 dpi, boiled in 95% ethanol until completely bleached, followed by boiling for 3 min in a 1:1 mixture of 95% ethanol and staining solution (10 ml lactic acid, 10 ml glycerol, 10 g phenol and 10 mg trypan blue, dissolved in 10 ml DDW). The leaves were then de-stained in 2.5 g/ml chloral hydrate solution and transferred to 70% glycerol for subsequent imaging.

[6] = target: T1, Myc-CUL3; assay: pull-down, N. benthamiana, SA dose response

B1: NPR1-HA (other)
chain: MDTTIDGFADSYEISSTSFVATDNTDSSIVYLAAEQVLTGPDVSALQLLSNSFESVFDSPDDFYSDAKLVLSDGREVSFHRCVLSARSSFFKSALAAAKKEKDSNNTAAVKLELKEIAKDYEVGFDSVVTVLAYVYSSRVRPPPKGVSECADENCCHVACRPAVDFMLEVLYLAFIFKIPELITLYQRHLLDVVDKVVIEDTLVILKLANICGKACMKLLDRCKEIIVKSNVDMVSLEKSLPEELVKEIIDRRKELGLEVPKVKKHVSNVHKALDSDDIELVKLLLKEDHTNLDDACALHFAVAYCNVKTATDLLKLDLADVNHRNPRGYTVLHVAAMRKEPQLILSLLEKGASASEATLEGRTALMIAKQATMAVECNNIPEQCKHSLKGRLCVEILEQEDKREQIPRDVPPSFAVAADELKMTLLDLENRVALAQRLFPTEAQAAMEIAEMKGTCEFIVTSLEPDRLTGTKRTSPGVKIAPFRILEEHQSRLKALSKTVELGKRFFPRCSAVLDQIMNCEDLTQLACGEDDTAEKRLQKKQRYMEIQETLKKAFSEDNLELGNSSLTDSTSSTSKSTGGKRSNRKLSHRRR
notes: Full-length wild-type NPR1, transiently expressed in N. benthamiana; also called HA-fused NPR1; WT NPR1; not shown: C-terminal HA tag (pLN462)
binding result [1]: binds

B2: rdr3: NPR1 with cysteine cluster of RDR3 mutated (C511/521/529A) (protein)
chain: B1 chain with C511A, C521A, C529A
modifications: A. thaliana npr1 rdr3 protein
transcriptional co-activation function (PR1 promoter transactivation) [2]: reduced transcriptional co-activation function | SA-induced cytoplasmic body/condensate (SINC) formation ([3]; 5 mM SA for 2 hr): completely abolished the SA-induced condensation in both cytoplasm and nucleus | nuclear accumulation (nuclear-cytoplasmic partitioning) ([3]; absence of SA, compared to WT): increased nuclear accumulation | condensate formation in the absence of SA (constitutive) ([3]; no SA treatment / mock): no effect on protein state in untreated cells | CUL3 pull-down signal in co-IP [4]: little interaction | protection against cell death induced by Psm ES4326/AvrRpt2 (SA-mediated survival phenotype) [5]: partially compromised the protection against cell death

B3: sim3-HA (other)
chain: B1 chain with I345A, L346A, L348A
notes: SUMOylation-deficient mutant of NPR1; also called npr1sim3; HA-fused sim3; not shown: C-terminal HA tag (pLN462)
binding result [6]: binds
